Measured values: paper PMC7833764

Columns and labels:
[1] = target: human CD3 epsilon (CD3ε) (Homo sapiens) (UniProt P07766)
[2] = target: human GUCY2C (guanylyl cyclase 2C), recombinant protein (human) (UniProt P25092)
Sequence of UniProt P25092 (P25092 24-1073): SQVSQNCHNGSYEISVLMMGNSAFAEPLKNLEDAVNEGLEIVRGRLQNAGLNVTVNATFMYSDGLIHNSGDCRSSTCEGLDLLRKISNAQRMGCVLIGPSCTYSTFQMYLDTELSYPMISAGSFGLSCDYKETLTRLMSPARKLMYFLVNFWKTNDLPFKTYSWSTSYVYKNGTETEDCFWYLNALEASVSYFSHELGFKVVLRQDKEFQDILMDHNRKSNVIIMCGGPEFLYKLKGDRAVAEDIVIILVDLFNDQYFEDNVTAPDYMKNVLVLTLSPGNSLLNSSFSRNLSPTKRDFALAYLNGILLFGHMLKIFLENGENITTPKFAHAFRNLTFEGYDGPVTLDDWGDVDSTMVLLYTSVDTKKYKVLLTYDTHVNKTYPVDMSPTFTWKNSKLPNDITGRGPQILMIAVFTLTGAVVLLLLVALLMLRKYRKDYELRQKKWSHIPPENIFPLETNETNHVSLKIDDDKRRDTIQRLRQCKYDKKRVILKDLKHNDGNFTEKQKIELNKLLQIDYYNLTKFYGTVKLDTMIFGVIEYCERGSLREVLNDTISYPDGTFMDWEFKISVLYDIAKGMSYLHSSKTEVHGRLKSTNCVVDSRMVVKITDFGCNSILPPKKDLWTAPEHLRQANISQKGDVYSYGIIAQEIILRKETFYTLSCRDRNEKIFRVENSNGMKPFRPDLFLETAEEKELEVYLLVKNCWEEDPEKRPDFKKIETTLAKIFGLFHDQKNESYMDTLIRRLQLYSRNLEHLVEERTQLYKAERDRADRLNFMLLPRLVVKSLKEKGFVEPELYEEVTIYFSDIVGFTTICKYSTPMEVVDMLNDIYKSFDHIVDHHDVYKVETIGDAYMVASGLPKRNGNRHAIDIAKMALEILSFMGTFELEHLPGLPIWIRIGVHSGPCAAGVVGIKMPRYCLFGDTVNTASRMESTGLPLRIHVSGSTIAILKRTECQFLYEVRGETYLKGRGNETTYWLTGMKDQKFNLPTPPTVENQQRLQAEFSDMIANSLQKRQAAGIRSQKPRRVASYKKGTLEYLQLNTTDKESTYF

Sequence of UniProt P07766 (P07766 23-207): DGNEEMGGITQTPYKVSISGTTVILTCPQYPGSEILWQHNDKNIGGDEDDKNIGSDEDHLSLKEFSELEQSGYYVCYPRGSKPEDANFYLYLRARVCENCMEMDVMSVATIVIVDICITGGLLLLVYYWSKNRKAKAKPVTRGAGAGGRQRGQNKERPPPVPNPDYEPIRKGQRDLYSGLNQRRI

fold lower affinity than GUCY2C-0247 [1]: 7.2 fold | fold lower affinity than GUCY2C-0247 [2]: 2.5 fold
Substance: PF-07062119, anti-GUCY2C x anti-CD3ε T cell bispecific antibody (diabody-Fc)
